Legend:
[1] = target: N-acetyl-L-glutamate kinase (NAGK), His-tagged wild type (Synechococcus elongatus) (UniProt Q6V1L5)
[2] = target: NAGK‑FL25‑C (NAGK fused by a flexible 25-residue linker to Cerulean) (Synechococcus elongatus) (UniProt Q6V1L5)
[3] = target: NAGK‑FL25‑C (NAGK fused by a flexible 25-residue linker to Cerulean) (Synechococcus elongatus) (UniProt Q6V1L5); remark: listed apart in the source
[4] = target: NAGK‑FL25‑C (NAGK fused by a flexible 25-residue linker to Cerulean) (Synechococcus elongatus) (UniProt Q6V1L5); test: FRET or BRET; association kinetics: FRET ratio (525 nm / 475 nm emission) every 8 s, excitation 433 nm; NAGK-FL25-C preincubated at 37 °C, then PII-Venus variant added; 100 nM proteins; 0.1 mM ATP; ratio not background-subtracted (0.54 is the zero baseline)
[5] = target: T1, NAGK‑FL25‑C + PII-ST‑V (Synechococcus elongatus, UniProt P0A3F4); test: FRET dissociation of PII - NAGK complex, […] nm ratio; format: binding; conditions: 0.1 mM ATP, 20 mM MgCl2, pH 7.5, 100 nM proteins, 30 min; competitive with ATP; a ratio, not a concentration
T1 construct: gene glnB; same FRET complex as P6 (Cerulean on NAGK C-terminus, Strep-tag and Venus on PII C-terminus), E. coli; compound site on PII; with Acetylglutamate kinase
T1 sequence (P0A3F4 whole entry): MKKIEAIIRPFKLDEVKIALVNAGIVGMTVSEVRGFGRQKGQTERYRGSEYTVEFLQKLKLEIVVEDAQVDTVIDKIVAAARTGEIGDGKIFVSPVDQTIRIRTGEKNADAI
T1 sequence (Q6V1L5 whole entry partner): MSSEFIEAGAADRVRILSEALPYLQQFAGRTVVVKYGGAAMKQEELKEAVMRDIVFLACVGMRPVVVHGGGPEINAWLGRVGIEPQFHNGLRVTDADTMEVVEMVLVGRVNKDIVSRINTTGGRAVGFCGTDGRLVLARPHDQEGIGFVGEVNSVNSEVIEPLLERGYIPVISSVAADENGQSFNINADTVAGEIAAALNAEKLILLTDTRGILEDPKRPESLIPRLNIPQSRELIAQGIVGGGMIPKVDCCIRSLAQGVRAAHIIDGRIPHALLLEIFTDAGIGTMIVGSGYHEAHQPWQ

[6] = target: NAGK‑FL25‑C (NAGK fused by a flexible 25-residue linker to Cerulean) (Synechococcus elongatus) (UniProt Q6V1L5); test: FRET or BRET; FRET ratio of NAGK-FL25-C + PII-ST-V after addition of 2-OG (0.8 and 1.6 mM, the highest concentrations); 0.1 mM ATP; background subtracted and normalised
[7] = target: NAGK‑FL25‑C (NAGK fused by a flexible 25-residue linker to Cerulean) (Synechococcus elongatus) (UniProt Q6V1L5); test: FRET or BRET; FRET ratio of NAGK-FL25-C + PII-ST-V with ADP 0.25 to 8 mM and 0.1 mM ATP (ADP/ATP ratio about 80 for the maximal drop); background subtracted and normalised
[8] = target: N-acetyl-L-glutamate kinase (NAGK), His-tagged wild type (Synechococcus elongatus) (UniProt Q6V1L5); remark: listed apart in the source

Sequence of N-acetyl-L-glutamate kinase (NAGK), His-tagged wild type (Synechococcus elongatus) (Q6V1L5 whole entry, the tested form may be a part): as the sequence (Q6V1L5 whole entry partner) above
Sequence of NAGK‑FL25‑C (NAGK fused by a flexible 25-residue linker to Cerulean) (Synechococcus elongatus) (Q6V1L5 whole entry, the tested form may be a part): as the sequence (Q6V1L5 whole entry partner) above

| Compound | Kcat of NAGK activity in the presence of PII (NAGK-wt alone 38.8 s^-1) [1] [s⁻¹] | Kcat/Km of NAGK activity in the presence of PII (NAGK-wt alone 1.2E+04) [1] [M⁻¹ s⁻¹] | Kcat of NAGK activity in the presence of PII (NAGK-FL25-C alone 41.36 s^-1) [2] [s⁻¹] | Kcat/Km of NAGK activity in the presence of PII (NAGK-FL25-C alone 1.4E+04) [2] [M⁻¹ s⁻¹] | partial relief of NAGK from arginine inhibition by PII: fold increase of the IC50 of arginine in the enzyme assay [3] [times] | maximum FRET ratio (525 nm / 475 nm; zero baseline 0.54) [4] | IC50 (ADP/ATP ratio) [5] | steady state FRET level above background with 0.8 and 1.6 mM 2-OG [6] [%] | FRET level above baseline at the maximal drop (ADP/ATP ratio of about 80) [7] [%] | Kcat of NAGK activity in the presence of PII (coupled NADH oxidation assay; NAGK-wt alone 38.8 s^-1) [1] [s⁻¹] | relief of NAGK from arginine inhibition by PII: fold increase of the IC50 of arginine in the enzyme assay [8] [times] |
| --- | --- | --- | --- | --- | --- | --- | --- | --- | --- | --- | --- |
| PII-S49G‑ST‑V (PII S49G, Strep-tag as linker, Venus) (from UniProt P0A3F4 1-112) (natural protein) | 96.8 | 190000 | 99.6 | 250000 | 8.5 | 0.8 |  |  |  |  |  |
| PII-E85A‑ST‑V (PII E85A, Strep-tag as linker, Venus) (from UniProt P0A3F4 1-112) (natural protein) |  |  |  |  |  | 0.6 |  |  |  |  |  |
| PII-ST‑V (PII, Strep-tag as linker, Venus) (from UniProt P0A3F4 1-112) (natural protein) | 123 | 180000 | 134 | 210000 |  | 1.35 |  | 10 | 10 |  |  |

More lines, now with the values ahead:

| Kcat of NAGK activity in the presence of PII (NAGK-wt alone 38.8 s^-1) [1] [s⁻¹] | Kcat/Km of NAGK activity in the presence of PII (NAGK-wt alone 1.2E+04) [1] [M⁻¹ s⁻¹] | Kcat of NAGK activity in the presence of PII (NAGK-FL25-C alone 41.36 s^-1) [2] [s⁻¹] | Kcat/Km of NAGK activity in the presence of PII (NAGK-FL25-C alone 1.4E+04) [2] [M⁻¹ s⁻¹] | partial relief of NAGK from arginine inhibition by PII: fold increase of the IC50 of arginine in the enzyme assay [3] [times] | maximum FRET ratio (525 nm / 475 nm; zero baseline 0.54) [4] | IC50 (ADP/ATP ratio) [5] | steady state FRET level above background with 0.8 and 1.6 mM 2-OG [6] [%] | FRET level above baseline at the maximal drop (ADP/ATP ratio of about 80) [7] [%] | Kcat of NAGK activity in the presence of PII (coupled NADH oxidation assay; NAGK-wt alone 38.8 s^-1) [1] [s⁻¹] | relief of NAGK from arginine inhibition by PII: fold increase of the IC50 of arginine in the enzyme assay [8] [times] | Compound |
| --- | --- | --- | --- | --- | --- | --- | --- | --- | --- | --- | --- |
|  |  |  |  |  |  | ~ 10 ADP/ATP ratio |  |  |  |  | Nc1ncnc2c1ncn2[C@@H]1O[C@H](COP(=O)(O)OP(=O)(O)O)[C@@H](O)[C@H]1O [ADP] |
|  | 180000 | 128 | 240000 |  |  |  |  |  | 119 | 25 | PII signal transduction protein, wild type (from UniProt P0A3F4 1-112) (natural protein) |

Source: PMC3861474 (PLoS ONE, 2013)
